US20240033244A1, “COMPOSITIONS AND METHODS FOR INHIBITING YTHDF1” (SHANGHAI INSTITUTE OF MATERIA MEDICA, CHINESE ACADEMY OF …, priority 2020, published 2024)

Assays:
[1] = system: B16-OVA melanoma; test: B16-OVA tumor growth in wild-type mice; assay type: in vivo, mouse; details: 5×10^5 B16-OVA in C57BL/6 mice, 10 μM i.v. 9 days after implantation (FIG. 19)
[2] = molecular target: T1, His-YTHDF1 (361-559) (UniProt Q9BYJ9 SEQ:40-238); test: AlphaScreen; 20 mM Hepes pH 7.4, 150 mM NaCl, BSA, TritonX-100; binding inhibited by SAA; details: tags: His; label: 5'-biotin
T1 sequence: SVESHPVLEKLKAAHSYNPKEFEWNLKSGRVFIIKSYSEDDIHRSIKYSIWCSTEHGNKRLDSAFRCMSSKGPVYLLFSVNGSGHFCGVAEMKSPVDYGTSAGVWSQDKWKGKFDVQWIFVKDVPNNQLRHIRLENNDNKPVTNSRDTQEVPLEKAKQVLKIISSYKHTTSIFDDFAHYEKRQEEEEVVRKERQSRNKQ
Experimental: Then 10 nM biotinylated m⁶A-containing mRNA (5′-biotin-[…] (m⁶A) CUGUG-3′) (SEQ ID NO: 15) was added to bind with YTHDF1 (361-559), and unbiotinylated m⁶A-containing mRNA was used as the positive control. Before Alpha signal detection, streptavidin donor beads and anti-His acceptor beads were added into the white assay plate in subdued light (OptiPlate™-384, PerkinElmer) and incubated at 4° C. for 1 hour to ensure sufficient binding between biotin tag and streptavidin donor beads, as well as that between His tag and anti-His acceptor beads. Then the Alpha signal was detected on Envision Readers (PerkinElmer).

[3] = molecular target: T2, YTHDF1 (361-559), YTH domain (UniProt Q9BYJ9 SEQ:3-201); test: FP; value only in figure; 20 mM Hepes pH 7.4, 50 mM NaCl, 0.01% tween 20, 5% glycerol, 4 C; details: tags: GST tag removed; E. coli BL21(DE3); label: 5'-FAM
T2 sequence: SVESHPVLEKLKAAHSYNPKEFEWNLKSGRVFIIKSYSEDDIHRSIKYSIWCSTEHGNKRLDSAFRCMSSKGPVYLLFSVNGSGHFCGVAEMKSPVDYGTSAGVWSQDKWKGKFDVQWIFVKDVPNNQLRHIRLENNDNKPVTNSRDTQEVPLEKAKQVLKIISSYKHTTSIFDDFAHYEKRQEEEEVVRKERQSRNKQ

[4] = molecular target: T3, YTHDF1 (361-559) Y397A (UniProt Q9BYJ9 SEQ:3-201); test: FP; binding seen through SAA inhibition assay; affinity not given; details: tags: GST tag removed; label: 5'-FAM
T3 chain: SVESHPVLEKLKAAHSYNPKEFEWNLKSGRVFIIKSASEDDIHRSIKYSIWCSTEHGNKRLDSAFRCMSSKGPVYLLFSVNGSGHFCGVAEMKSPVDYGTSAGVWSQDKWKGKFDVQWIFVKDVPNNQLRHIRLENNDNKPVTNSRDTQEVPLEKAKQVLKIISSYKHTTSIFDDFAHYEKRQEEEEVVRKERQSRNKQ

[5] = molecular target: T4, YTHDF1 (361-559) C412A (UniProt Q9BYJ9 SEQ:3-201); test: as above; details: tags: GST tag removed; label: 5'-FAM
T4 chain: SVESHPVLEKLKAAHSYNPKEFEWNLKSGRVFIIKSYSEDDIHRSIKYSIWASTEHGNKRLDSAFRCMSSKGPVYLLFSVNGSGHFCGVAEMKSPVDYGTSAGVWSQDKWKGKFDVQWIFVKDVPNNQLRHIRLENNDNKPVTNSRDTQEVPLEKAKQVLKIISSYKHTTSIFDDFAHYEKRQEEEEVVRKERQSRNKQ

[6] = molecular target: T5, YTHDF1 (361-559) R506A (UniProt Q9BYJ9 SEQ:3-201); test: as above; details: tags: GST tag removed; label: 5'-FAM
T5 chain: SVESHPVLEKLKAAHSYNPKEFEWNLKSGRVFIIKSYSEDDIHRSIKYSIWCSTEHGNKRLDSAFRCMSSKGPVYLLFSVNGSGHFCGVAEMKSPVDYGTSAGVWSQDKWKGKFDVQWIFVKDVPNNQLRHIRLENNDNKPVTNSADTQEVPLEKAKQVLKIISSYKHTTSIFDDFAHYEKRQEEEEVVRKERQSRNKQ

[7] = molecular target: T6, YTHDF1 (361-559) K395A (UniProt Q9BYJ9 SEQ:3-201); test: as above; details: tags: GST tag removed; label: 5'-FAM
T6 chain: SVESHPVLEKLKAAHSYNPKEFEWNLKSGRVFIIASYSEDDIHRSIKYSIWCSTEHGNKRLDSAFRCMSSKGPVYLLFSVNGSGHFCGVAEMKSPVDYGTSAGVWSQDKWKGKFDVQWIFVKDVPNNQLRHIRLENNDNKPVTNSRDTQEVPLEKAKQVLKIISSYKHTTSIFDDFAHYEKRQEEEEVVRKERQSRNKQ

[8] = molecular target: T7, YTHDF1 (361-559) W384A (UniProt Q9BYJ9 SEQ:3-201, W384A); test: FP; value only in figure; affinity not influenced vs wild type; details: tags: GST tag removed; label: 5'-FAM
T7 sequence: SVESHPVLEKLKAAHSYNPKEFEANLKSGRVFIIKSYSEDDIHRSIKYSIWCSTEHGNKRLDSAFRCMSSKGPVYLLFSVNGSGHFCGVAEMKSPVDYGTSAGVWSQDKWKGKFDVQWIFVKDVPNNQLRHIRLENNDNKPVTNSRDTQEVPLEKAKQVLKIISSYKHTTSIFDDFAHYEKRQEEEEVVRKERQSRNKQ

[9] = molecular target: T8, YTHDF1 C-terminal truncation (UniProt Q9BYJ9 SEQ:3-174); test: as above; details: tags: GST tag removed; label: 5'-FAM
T8 chain: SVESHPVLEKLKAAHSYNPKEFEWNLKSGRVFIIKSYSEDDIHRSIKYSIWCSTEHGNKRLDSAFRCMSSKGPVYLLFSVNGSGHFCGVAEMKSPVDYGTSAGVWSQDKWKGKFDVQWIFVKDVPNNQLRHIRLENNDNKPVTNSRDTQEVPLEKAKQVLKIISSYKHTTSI

[10] = molecular target: T9, YTHDF1 (361-559) F480A (UniProt Q9BYJ9 SEQ:3-201, F480A); test: as above; details: tags: GST tag removed; label: 5'-FAM
T9 sequence: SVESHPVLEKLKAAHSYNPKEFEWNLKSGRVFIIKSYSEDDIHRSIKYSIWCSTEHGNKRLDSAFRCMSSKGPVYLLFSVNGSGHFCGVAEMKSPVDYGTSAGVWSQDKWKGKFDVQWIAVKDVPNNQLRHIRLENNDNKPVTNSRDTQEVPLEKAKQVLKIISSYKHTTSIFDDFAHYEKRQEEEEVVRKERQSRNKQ

[11] = molecular target: T10, YTHDF1 (361-559) H528A (UniProt Q9BYJ9 SEQ:3-201, H528A); test: as above; details: tags: GST tag removed; label: 5'-FAM
T10 sequence: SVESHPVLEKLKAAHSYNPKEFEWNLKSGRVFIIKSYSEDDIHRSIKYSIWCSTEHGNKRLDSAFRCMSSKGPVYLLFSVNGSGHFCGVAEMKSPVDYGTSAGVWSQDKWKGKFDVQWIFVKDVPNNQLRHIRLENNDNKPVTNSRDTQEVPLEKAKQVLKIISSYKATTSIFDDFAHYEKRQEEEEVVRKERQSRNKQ

[12] = molecular target: T11, YTHDF1 (361-559) N378A (UniProt Q9BYJ9 SEQ:3-201, N378A); test: as above; details: tags: GST tag removed; label: 5'-FAM
T11 sequence: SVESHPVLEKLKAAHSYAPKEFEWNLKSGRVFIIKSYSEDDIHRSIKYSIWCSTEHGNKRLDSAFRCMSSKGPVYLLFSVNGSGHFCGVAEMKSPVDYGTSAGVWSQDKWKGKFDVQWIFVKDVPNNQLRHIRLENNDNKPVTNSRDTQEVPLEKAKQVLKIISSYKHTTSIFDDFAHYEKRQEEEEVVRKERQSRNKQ

[13] = molecular target: T12, YTHDF1 (361-559) F382A (UniProt Q9BYJ9 SEQ:3-201, F382A); test: as above; details: tags: GST tag removed; label: 5'-FAM
T12 sequence: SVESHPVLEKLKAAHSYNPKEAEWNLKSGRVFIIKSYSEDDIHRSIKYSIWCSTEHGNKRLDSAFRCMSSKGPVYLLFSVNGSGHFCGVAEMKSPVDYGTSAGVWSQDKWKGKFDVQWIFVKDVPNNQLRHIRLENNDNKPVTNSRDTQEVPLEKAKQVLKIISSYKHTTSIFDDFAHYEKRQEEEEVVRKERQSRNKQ

O=C(/C=C/c1ccc(O)c2oc(-c3ccc(O)c(O)c3)cc12)O[C@H](Cc1ccc(O)c(O)c1)C(=O)O [SAC, Salvianolic Acid C]
tumor growth versus DMSO [1]: tumor growth was much slower

B1: 5'-biotin m6A-containing mRNA (ssRNA)
RNA: UUCUUCUGUGGACUGUG
modifications: m6A at position 12 (UUCUUCUGUGG(m6A)CUGUG)
binding result [2]: binds

B2: 5'-FAM m6A-containing mRNA (ssRNA)
RNA: UUCUUCUGUGGACUGUG
modifications: m6A at position 12 (UUCUUCUGUGG(m6A)CUGUG)
binding result [3]: binds
binding result [4]: binds
binding result [5]: binds
binding result [6]: binds
binding result [7]: binds
binding result [8]: binds
binding result [9]: binds
binding result [10]: binds
binding result [11]: binds
binding result [12]: binds
binding result [13]: binds
